In paper PMC7876137, “Functional and structural characterization of a flavoprotein monooxygenase essential for biogenesis of tryptophylquinone cofactor” (Nature Communications, 2021):

T1: crosslinked QhpC (quinone-less QhpC with three intra-peptidyl thioether bonds, the 28-residue leader peptide … (Pseudomonas putida IFO 15366 (NBRC …, three intra-peptidyl Cys-to-Asp/Glu thioether bonds (Cys7-Glu16, Cys27-Asp33, Cys41-Asp49 as drawn in Supplementary Fig. 5); Cys37 and Trp43 free)
T1 construct: source: E. coli C41 (DE3), co-expressed with His6-QhpD; QhpCD complex purified (HisTrap, Strep trap); QhpD removed by heat denaturation (60 °C, 20 min) after the QhpD-catalyzed thioether bond formation; not shown: Twin-Strep (St2), C-terminal, kept
T1 chain: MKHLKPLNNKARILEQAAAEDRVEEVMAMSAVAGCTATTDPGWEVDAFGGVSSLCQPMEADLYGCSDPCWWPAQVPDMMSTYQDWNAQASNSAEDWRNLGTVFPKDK

T2: linear QhpC (nascent QhpC polypeptide with the 28-residue leader peptide and a C-terminal Twin-Strep tag, … (Pseudomonas putida IFO 15366 (NBRC …)))
T2 construct: also called QhpC-St2; source: E. coli C41 (DE3), co-expressed with His6-QhpD; QhpCD complex purified (HisTrap, Strep trap); QhpD removed by heat denaturation (60 °C, 20 min) before the QhpD-catalyzed reaction; not shown: Twin-Strep (St2), C-terminal, kept
T2 chain: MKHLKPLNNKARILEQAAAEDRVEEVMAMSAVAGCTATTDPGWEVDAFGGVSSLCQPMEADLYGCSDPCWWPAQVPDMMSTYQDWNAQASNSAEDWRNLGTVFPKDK


Tests used:
[1] = target: crosslinked QhpC (quinone-less QhpC of Ps. putida with three intra-peptidyl thioether bonds, the 28-residue leader peptide and a C-terminal Twin-Strep tag) (Pseudomonas putida IFO 15366 (NBRC 15366)); assay: BLI; BLItz; QhpC immobilised through the St2-tag on streptavidin-coated biosensors, QhpG as analyte; 10 mM Tris-HCl, pH 7.4, 150 mM NaCl, 0.1% BSA, 0.02% Tween 20, 25 °C; global analysis
[2] = target: T1, crosslinked QhpC (quinone-less QhpC …); assay: BLI; BLItz system; linear or crosslinked QhpC immobilised through the St2-tag on streptavidin-coated biosensors; QhpG as analyte; 10 mM Tris-HCl pH 7.4, 150 mM NaCl, 0.1% BSA, 0.02% Tween 20; 25 °C; reference with a ligand-free biosensor; global analysis; settings: both partners purified
[3] = target: T2, linear QhpC (nascent QhpC polypeptide …); assay: as above; settings: both partners purified

| Molecule | fold higher affinity (KD) than for linear QhpC [1] | Kd [2] | koff [2] | kon [2] | Kd [3] | koff [3] | kon [3] |
| --- | --- | --- | --- | --- | --- | --- | --- |
| QhpG from Pseudomonas putida (flavoprotein monooxygenase, peptidyl tryptophan dihydroxylase), tag-less wild type (enzyme) | 100 fold |  |  |  |  |  |  |
| QhpG from Pseudomonas putida IFO 15366 (wild-type) (enzyme, Monomer by gel filtration; From the His6-TEV oligonucleotide, a few residues (G, H) may remain before Met1 after TEV cleavage; this is surmised; also called PpQhpG; peptidyl tryptophan dihydroxylase; source: E. coli C41 (DE3), purified (Ni-Sepharose FF, HisTrap HP; His6-tag removed with TEV protease, second HisTrap HP); not shown: His6, N-terminal, cleaved) MAEPRIVVLGAGPAGAATAIGLRRLGYAVTVVSEWRRFAAVEGVSQRVLEGLRHVGLGGALRQAAMPATRQVHWNGQQLHLNQEFLLDRQRFDRALRDDLQRAGVSVVEGRVREVVRDVGHGIRLDDGQVLQADFLVEARGRQAPLAADRLRGPETVSLLNVWQAAPGAPASAVESLADGWAWMARLEDGRCYWQVTLDAAGLPGKAGLADYCAARRADSALVTELFDARALASAEVHARSSTAILAGECVGQDWIRVGDAAMAVDPLSGNGIFQSLSSALQAPVVINTLLRRPERAGLARQFHQQRIEQLFLRFARIGRDFYGQEQGRVGQPFWARRQGWPDMQALHVAADWSAVRVERRPVLRDGLVDEAEVVVTADQPLGVWHLQGVELAPAVRELQAGRPLEAVVSGLSGEQQRMVRRWLLEQGLV |  | 28 ± 2.3 nM | 0.014 s⁻¹ | 490000 M⁻¹ s⁻¹ | 2800 ± 22 nM | 0.16 s⁻¹ | 59000 M⁻¹ s⁻¹ |
| QhpG R47A mutant (Pseudomonas putida) (enzyme, R47A is still to be applied; source: E. coli C41 (DE3), purified (Ni-Sepharose FF, HisTrap HP; His6-tag removed with TEV protease, second HisTrap HP); not shown: His6, N-terminal, cleaved) MAEPRIVVLGAGPAGAATAIGLRRLGYAVTVVSEWRRFAAVEGVSQAVLEGLRHVGLGGALRQAAMPATRQVHWNGQQLHLNQEFLLDRQRFDRALRDDLQRAGVSVVEGRVREVVRDVGHGIRLDDGQVLQADFLVEARGRQAPLAADRLRGPETVSLLNVWQAAPGAPASAVESLADGWAWMARLEDGRCYWQVTLDAAGLPGKAGLADYCAARRADSALVTELFDARALASAEVHARSSTAILAGECVGQDWIRVGDAAMAVDPLSGNGIFQSLSSALQAPVVINTLLRRPERAGLARQFHQQRIEQLFLRFARIGRDFYGQEQGRVGQPFWARRQGWPDMQALHVAADWSAVRVERRPVLRDGLVDEAEVVVTADQPLGVWHLQGVELAPAVRELQAGRPLEAVVSGLSGEQQRMVRRWLLEQGLV |  | 1500 ± 490 nM | 0.023 s⁻¹ | 15000 M⁻¹ s⁻¹ |  |  |  |

The remaining molecules from weak to strong by Kd [2], led by results:

| fold higher affinity (KD) than for linear QhpC [1] | Kd [2] | koff [2] | kon [2] | Kd [3] | koff [3] | kon [3] | Molecule |
| --- | --- | --- | --- | --- | --- | --- | --- |
|  | 78 ± 28 nM | 0.011 s⁻¹ | 140000 M⁻¹ s⁻¹ |  |  |  | QhpG R314A mutant (Pseudomonas putida) (enzyme, R314A is still to be applied; source: E. coli C41 (DE3), purified (Ni-Sepharose FF, HisTrap HP; His6-tag removed with TEV protease, second HisTrap HP); not shown: His6, N-terminal, cleaved) MAEPRIVVLGAGPAGAATAIGLRRLGYAVTVVSEWRRFAAVEGVSQRVLEGLRHVGLGGALRQAAMPATRQVHWNGQQLHLNQEFLLDRQRFDRALRDDLQRAGVSVVEGRVREVVRDVGHGIRLDDGQVLQADFLVEARGRQAPLAADRLRGPETVSLLNVWQAAPGAPASAVESLADGWAWMARLEDGRCYWQVTLDAAGLPGKAGLADYCAARRADSALVTELFDARALASAEVHARSSTAILAGECVGQDWIRVGDAAMAVDPLSGNGIFQSLSSALQAPVVINTLLRRPERAGLARQFHQQRIEQLFLAFARIGRDFYGQEQGRVGQPFWARRQGWPDMQALHVAADWSAVRVERRPVLRDGLVDEAEVVVTADQPLGVWHLQGVELAPAVRELQAGRPLEAVVSGLSGEQQRMVRRWLLEQGLV |
|  | 65 ± 8.1 nM | 0.011 s⁻¹ | 170000 M⁻¹ s⁻¹ |  |  |  | QhpG E42A mutant (Pseudomonas putida) (enzyme, E42A is still to be applied; source: E. coli C41 (DE3), purified (Ni-Sepharose FF, HisTrap HP; His6-tag removed with TEV protease, second HisTrap HP); not shown: His6, N-terminal, cleaved) MAEPRIVVLGAGPAGAATAIGLRRLGYAVTVVSEWRRFAAVAGVSQRVLEGLRHVGLGGALRQAAMPATRQVHWNGQQLHLNQEFLLDRQRFDRALRDDLQRAGVSVVEGRVREVVRDVGHGIRLDDGQVLQADFLVEARGRQAPLAADRLRGPETVSLLNVWQAAPGAPASAVESLADGWAWMARLEDGRCYWQVTLDAAGLPGKAGLADYCAARRADSALVTELFDARALASAEVHARSSTAILAGECVGQDWIRVGDAAMAVDPLSGNGIFQSLSSALQAPVVINTLLRRPERAGLARQFHQQRIEQLFLRFARIGRDFYGQEQGRVGQPFWARRQGWPDMQALHVAADWSAVRVERRPVLRDGLVDEAEVVVTADQPLGVWHLQGVELAPAVRELQAGRPLEAVVSGLSGEQQRMVRRWLLEQGLV |
|  | 48 ± 3.6 nM | 0.022 s⁻¹ | 470000 M⁻¹ s⁻¹ |  |  |  | QhpG R70A mutant (Pseudomonas putida) (enzyme, R70A is still to be applied; source: E. coli C41 (DE3), purified (Ni-Sepharose FF, HisTrap HP; His6-tag removed with TEV protease, second HisTrap HP); not shown: His6, N-terminal, cleaved) MAEPRIVVLGAGPAGAATAIGLRRLGYAVTVVSEWRRFAAVEGVSQRVLEGLRHVGLGGALRQAAMPATAQVHWNGQQLHLNQEFLLDRQRFDRALRDDLQRAGVSVVEGRVREVVRDVGHGIRLDDGQVLQADFLVEARGRQAPLAADRLRGPETVSLLNVWQAAPGAPASAVESLADGWAWMARLEDGRCYWQVTLDAAGLPGKAGLADYCAARRADSALVTELFDARALASAEVHARSSTAILAGECVGQDWIRVGDAAMAVDPLSGNGIFQSLSSALQAPVVINTLLRRPERAGLARQFHQQRIEQLFLRFARIGRDFYGQEQGRVGQPFWARRQGWPDMQALHVAADWSAVRVERRPVLRDGLVDEAEVVVTADQPLGVWHLQGVELAPAVRELQAGRPLEAVVSGLSGEQQRMVRRWLLEQGLV |
|  | 37 ± 19 nM | 0.013 s⁻¹ | 360000 M⁻¹ s⁻¹ |  |  |  | QhpG W183F mutant (Pseudomonas putida) (enzyme, W183F is still to be applied; source: E. coli C41 (DE3), purified (Ni-Sepharose FF, HisTrap HP; His6-tag removed with TEV protease, second HisTrap HP); not shown: His6, N-terminal, cleaved) MAEPRIVVLGAGPAGAATAIGLRRLGYAVTVVSEWRRFAAVEGVSQRVLEGLRHVGLGGALRQAAMPATRQVHWNGQQLHLNQEFLLDRQRFDRALRDDLQRAGVSVVEGRVREVVRDVGHGIRLDDGQVLQADFLVEARGRQAPLAADRLRGPETVSLLNVWQAAPGAPASAVESLADGWAFMARLEDGRCYWQVTLDAAGLPGKAGLADYCAARRADSALVTELFDARALASAEVHARSSTAILAGECVGQDWIRVGDAAMAVDPLSGNGIFQSLSSALQAPVVINTLLRRPERAGLARQFHQQRIEQLFLRFARIGRDFYGQEQGRVGQPFWARRQGWPDMQALHVAADWSAVRVERRPVLRDGLVDEAEVVVTADQPLGVWHLQGVELAPAVRELQAGRPLEAVVSGLSGEQQRMVRRWLLEQGLV |
